Assays:
human dUTPase (human) [1] = target: human dUTPase (human)
[2] = target: biotinylated Stl^NT (residues 1-159) with C-terminal Avi-tag (Staphylococcus aureus); assay: BLI; biotinylated Stl construct on streptavidin SAX biosensors, hDUT in solution; Octet K2, 30 °C, 50 mM HEPES, 300 mM NaCl, 5 mM MgCl2, pH 7.5; at least five dilutions; 1:1 binding model; substrate-free
human dUTPase (human) [3] = assay: crystal structure; Stl^NT and hDUT mixed in 1:1 monomer molar ratio, ca. 20 mg/ml; crystals at 20 °C from 1.5 M ammonium sulfate, 0.1 M sodium acetate pH 5; 3.2 Å
human dUTPase (human) [4] = assay: steady state enzyme inhibition assay; apparent; 50 nM hDUT preincubated 5 min with varying Stl variant, 30 µM dUTP, 25 °C, 1 mM HEPES, 150 mM KCl, 5 mM MgCl2, 40 µM phenol red, pH 7.5; quadratic binding equation

Substance | Residual activity of 50 nM hDUT at 300 nM Stl concentration (human dUTPase (human) [1]) [%] | further results
Stl-Y116R (natural protein) | 69 | 
Stl-V55S (natural protein) | 75 | 
human dUTPase (enzyme) |  | Kd [2]: 0.177 nM; koff [2]: 0.000106 s⁻¹; kon [2]: 600000 M⁻¹ s⁻¹; stoichiometry N (human dUTPase (human) [3]): 3
Stl-L192A, F196A (natural protein) | 100 | 
Stl protein, wild type, full-length (natural protein) | 30 | 
Stl-derived peptide 95-…-117 | 70 | Ki (human dUTPase (human) [4]): 13 nM
Stl-S114D (natural protein) | 100 | 
Stl-I181A, I184A (natural protein) | 70 | Ki (human dUTPase (human) [4]): 2.3 nM
Stl-Y106R (natural protein) | 89 | 
Stl-S114E (natural protein) | 100 | 
Stl^NT (amino terminal domain of Stl, residues 1-159) (domain or fragment) | 50 | Ki (human dUTPase (human) [4]): 31 nM
Stl-E189A (natural protein) | 77 | 
Stl-Y106K (natural protein) | 83 | 

Reference: paper PMC11808092
